Source: patent US10913773B2, “Bicyclic peptidyl inhibitor of tumor necrosis factor-alpha” (Ohio State Innovation Foundation, priority 2016, dated 2021)
Like-named read-outs stand apart in the source and are kept apart here. Starred links: 1 amine or outer side, 2 acyl side, 3 side chain; linkers in the order of their positions; H or OH if unused. Positions of bridges follow the written chain, without caps; N, C: chain ends. Non-standard residues stand in square brackets, D forms with d. Residues, ends and D or L forms follow the SMILES beside them. Primed or numbered codes have the meaning given here. No end group written: not given here. *: point of attachment. FITC(3) = fluorescein isothiocyanate (N6-fluorescein-thiocarbamoyl on Lys); FITC = O=C1OC2(c3ccc(O)cc3Oc3cc(O)ccc32)c2ccc(NC(=S)*)cc21; Trimesoyl = O=C(c1cc(C(=O)[*:2])cc(C(=O)[*:3])c1)[*:1]; trimesoyl″ = benzene-1,3,5-tricarbonyl scaffold; Phe(4-F) = N[C@@H](Cc1ccc(F)cc1)C(=O)O; trimesoyl = benzene-1,3,5-tricarbonyl; Nle = CCCC[C@H](N)C(=O)O; Dap = NC[C@H](N)C(=O)O; AEEA = NCCOCCOCC(=O)O; βAla = NCCC(=O)O

Experiments:
TNFα-TNFR1 interaction = target: T1, TNFα-TNFR1 interaction (Homo sapiens, UniProt P01375); assay: ELISA inhibition of TNFα-TNFR1 interaction (immobilized biotinylated TNFα, TNFR1-HRP); format: binding; conditions: inhibition of TNFα-TNFR1 interaction, unlabeled peptides
T1 construct: made in house; host or cells: Escherichia coli (TNFα)
Procedure: Inhibition of TNFα-TNRF1 interaction by ELISA was carried out as previously described (Lian, W.; et al., supra).
Because of its high-throughput capability, FA analysis had been used to generate all of the SAR data described above. […] To confirm the SAR data obtained by FA analysis, some of the compounds in Table 5 (as well as new compounds) were resynthesized without the Lys(FITC) label and employed a more sensitive ELISA-based assay to determine the IC50 values for inhibition of the TNFα-TNFR1 interaction. Briefly, biotinylated TNFα was immobilized onto a NeutrAvidin-coated surface. TNFR1 conjugated with horseradish peroxidase (HRP) (0.5 nM) was added along with different concentrations of a peptide inhibitor. After washing, the amount of bound TNFR1-HRP was quantitated by ELISA. […] In agreement with the FA results, either extension at the C-terminus of β-Ala with another amino acid (C1-67 to C1-70) or side-chain modification of β-Ala (C1-71 to C1-73) decreased TNFα binding.

[1] = test system: TNFα-induced cell death in WEHI-13VAR fibroblasts (recombinant human TNFα); format: cell-based
Procedure: WEHI-13VAR fibroblasts were purchased from American Type Culture Collection (ATCC). For maintenance, cells were grown in full medium as RPMI-1640 supplemented with 10% FBS and 1% Abs. For toxicity assay, cells were seeded in a 96-well plate at a density of 5×10^3 cells/well in 100 μL of RPMI-1640/1% Abs supplemented with 10% or 5% FBS and allowed to grow overnight. Varying concentrations of recombinant human TNFα (0-250 ng/mL) or commercial mouse TNFα were (0-100 pg/mL) were incubated with 10 μM peptide and actinomycin D (1 μg/mL) in 100 μL of corresponding growth medium for 1 h at 37° C. Next, the medium in the 96-well plate was removed and replaced with the above fresh mixture and the cells were incubated overnight. Next day, 10 μL of the 3-(4, 5-dimethylthiazolyl-2)-2, 5-diphenyltetrazolium bromide (MTT, final concentration 0.5 mg/ml) was added to each well and incubated at 37° C. for 3 h, following by the addition of 100 μL of the MTT solubilization solution. The plate was kept in the incubator overnight to let the formazan crystals to completely dissolve, and the absorbance at 570 nm was measured on a TECAN plate reader. The LD50 was obtained as plotting the viability as a function of the TNFα concentration.
One of the biological functions of TNFα is to induce death signaling. Inhibitors against the TNFα-TNFR interaction are expected to protect cells against TNFα induced cell death. Therefore, anticachexin C1, C1-74, and C1-74-2 through C1-74-5 were compared for their ability to protect cultured WEHI-13 VAR fibroblasts, which are highly sensitive to TNFα in the presence of actinomycin-D, against TNFα-induced cell death (Khabar, K. S. A.; et al., “WEHI-13VAR: A Stable and Sensitive Variant of WEHI 164 Clone 13 Fibrosarcoma for Tumor Necrosis Factor Bioassay.” Immunol. Lett. 1995, 46:107-110). The cells were treated with a fixed concentration of peptides (10 μM) and varying concentrations of TNFα (0-1 μM), and the fraction of live cells was quantitated by the 3-(4,5-dimethylthiazol-2-yl)-2,5-diphenyltetrazolium bromide (MTT) assay. […] The MTT assay was also conducted at a fixed concentration of TNFα (0.4 ng/mL) but varying concentrations of peptides (0-10 μM).

Serum stability test = format: in vitro ADME, human; conditions: 37° C.
Procedure: Diluted human serum (25%) was centrifuged at 15,000 rpm for 10 min, and the supernatant was collected. A peptide stock solution was diluted into the supernatant to a final concentration of 5 μM and incubated at 37° C. At various time points (0-8 h), 200-μL aliquots were withdrawn and mixed with 50 μL of 15% trichloroacetic acid and 200 μL of acetonitrile. After incubation at 4° C. overnight, the mixture was centrifuged at 15,000 rpm for 10 min in a microcentrifuge, and the supernatant was analyzed by reversed-phase HPLC equipped with an analytical C18 column (Waters). The amount of remaining intact peptide (%, relative that of time zero control) was determined by integrating the area underneath the peptide peak (monitored at 214 nm).

[2] = target: T2, Recombinant TNFα containing an N-terminal 13-aa ybbR tag (human, UniProt P01375 77-233, biotin at the ybbR tag in the ELISA assays); assay: FA, FITC-peptide + TNFα titration
T2 construct: Expressed in E. coli; Same construct used unlabelled (FA) and biotinylated on NeutrAvidin (ELISA); also called tumor necrosis factor-alpha; human TNFα; not shown: N-terminal 13-aa ybbR tag
T2 sequence (P01375 77-233): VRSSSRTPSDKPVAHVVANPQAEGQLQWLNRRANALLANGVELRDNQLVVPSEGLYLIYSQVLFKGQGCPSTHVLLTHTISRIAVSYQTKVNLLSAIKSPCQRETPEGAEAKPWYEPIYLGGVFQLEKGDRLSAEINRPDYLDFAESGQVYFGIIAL
Procedure: (§1) The FA values were measured on a Molecular Devices Spectramax M5 spectrofluorimeter, with excitation and emission wavelengths at 485 and 525 nm, respectively. Equilibrium dissociation constants (KD) were determined by plotting the FA values as a function of TNFα concentration and fitting the data to the following equation $$Y = \frac{\left(Amin + \left(Amax \times \frac{Q_b}{Q_f} - Amin\right)\left(\frac{(L+x+K_d) - \sqrt{((L+x+K_d)^2 - 4Lx)}}{2L}\right)\right)}{\left(1 + \left(\frac{Q_b}{Q_f} - 1\right)\left(\frac{(L+x+K_d) - \sqrt{((L+x+K_d)^2 - 4Lx)}}{2L}\right)\right)}$$
(§2) where Y is the measured anisotropy at a given TNFα concentration x; L is the bicyclic peptide concentration; Qb/Qf is the correction fact for dye-protein interaction; Amax is the maximum anisotropy when all the peptides are bound to TNFα, while $Amin$ is the minimum anisotropy. […] The FA values were plotted against the competitor peptide concentration to determine the IC$50$ values.

[3] = target: T2, Recombinant TNFα containing an …; assay: FA
Procedure: as §1, §2

[4] = target: T2, Recombinant TNFα containing an …; assay: FA, FITC-peptide + TNFα titration; remark: listed apart in the source
Procedure: as §1, §2

[5] = target: T2, Recombinant TNFα containing an …; assay: FA, FITC-peptide + TNFα titration; remark: listed apart in the source
[6] = target: T2, Recombinant TNFα containing an …; assay: FA; against C1
Procedure: as §1, §2

[7] = target: Recombinant TNFα containing an N-terminal 13-aa ybbR tag (human) (UniProt P01375); assay: FA, FITC-peptide + TNFα titration
Recombinant TNFα containing an N-terminal 13-aa ybbR tag (human), sequence (P01375 77-233): as above

[8] = target: T2, Recombinant TNFα containing an …; assay: cell-based or functional assay
[9] = target: T2, Recombinant TNFα containing an …; assay: ELISA, inhibition of TNFR1-HRP binding to immobilized biotin-TNFα
Text: Because of its high-throughput capability, FA analysis had been used to generate all of the SAR data described above. […] Briefly, biotinylated TNFα was immobilized onto a NeutrAvidin-coated surface.

Molecule: CC(=O)[C@@H](Cc1ccccc1)NC(=O)[C@@H](C)NC(=O)C(N)Cc1ccc(F)c(F)c1 (stereo partly shown) [Compound C1-74-3]
- IC50 (TNFα-TNFR1 interaction): 0.15 ± 0.043 µM
- LD50 [1]: 2.6 ± 0.9 ng/mL

Molecule: CCCC[C@@H]1NC(=O)c2cc3cc(c2)C(=O)NC[C@@H](C(=O)NCCC(N)=O)NC(=O)[C@H](Cc2c[nH]cn2)NC(=O)[C@@H](CCCCN)NC(=O)CNC(=O)[C@@H](Cc2c[nH]cn2)NC(=O)[C@H](Cc2c[nH]c4ccccc24)NC(=O)[C@H](CCCCNC3=O)NC(=O)[C@@H](C)NC(=O)[C@H](Cc2ccc(O)cc2)NC1=O [Compound C1-74] ([Nle]Y[dA]KW[dH]G[dK]H[Dap][βAla]-NH2; linker N-4-10 via Trimesoyl)
- IC50 (TNFα-TNFR1 interaction): 0.07 µM
- EC50 [1]: ~1 µM

Molecule: DRQIKIWFQNRRMKWKKTALDWSWLQTE [Antp-NBD]
- Time to complete degradation in human serum (Serum stability test): ≤ 2 h
- half-life at 5 μM (Serum stability test; human, diluted human serum (25%), supernatant after centrifugation): ~15 min

Molecule: [Nle]Y[dS]KW[dH]G[dK]H[Dap]DK(FITC)-NH2 (linker (positions not given here) via trimesoyl″; not fully specified (bridges), C1-35 core with R11 as printed) [C1-51]
- Kd [2]: 3.5 µM

Molecule: [Nle]Y[dS]KW[dH]G[dK]H[Dap]NK(FITC)-NH2 (linker N-4-10 via trimesoyl″, C1-35 core with R11 as printed) [C1-52]
- fold reduction in affinity against C1-35 [3]: 3 fold
- Kd [2]: 0.79 µM

Molecule: [Nle]Y[dS]KW[dH]G[dK]H[Dap]K(FITC)-NH2 (linker N-4-10 via trimesoyl″) [C1-35]
- Kd [4]: 0.26 µM
- fold increase in affinity against Tyr at position-5 [3]: 3 fold
- Kd [5]: 0.26 µM
- Kd [2]: 0.26 µM

Molecule: AY[dA]KY[dF]G[dK]H[Dap]NNNK(FITC(3))-NH2 (linker N-4-10 via trimesoyl″) [Anticachexin C1 Phg1 → Ala, NNNK(FITC)-tagged]
- Fold of Affinity Reduction [6]: 1.2 fold
- Kd [5]: 1 µM

B1: C1-38 (peptide)
peptide: [Nle][Phe(4-F)][dS]K[Phe(4-F)][dH]G[dK]H[Dap]K(FITC)-NH2
modifications: linker (positions not given here) via trimesoyl; not fully specified (N-terminus, bridges)
- Kd [7]: 2.1 µM

Molecule: [Nle]Y[dS]KW[dH]G[dK]H[Dap]F[AEEA]K(FITC)-NH2 (linker N-4-10 via trimesoyl″, C1-35 core with R11 as printed) [C1-55]
- Kd [2]: 1 µM

Molecule: [Nle]Y[dS]KW[dH]G[dK]H[Dap]I[AEEA]K(FITC)-NH2 (linker N-4-10 via trimesoyl″, C1-35 core with R11 as printed) [C1-57]
- Kd [2]: 0.51 µM

B2: C1-56 (peptide)
peptide: [Nle]Y[dS]KW[dH]G[dK]H[Dap][dF][AEEA]K(FITC)-NH2
modifications: linker (positions not given here) via trimesoyl; not fully specified (N-terminus, bridges)
- Kd [7]: 0.63 µM

B3: C1-74 (peptide)
peptide: [Nle]Y[dA]KW[dH]G[dK]H[Dap][βAla]-NH2
modifications: linker N-4-10 via trimesoyl
notes: C1-66 with D-Ser3 reverted to D-Ala; also called bicyclic peptide C1-74
- EC50 of protection of WEHI-13VAR cells from 0.4 ng/mL TNFα, MTT [8]: ~1 µM

Molecule: [Nle]Y[dS]KW[dH]G[dK]H[Dap][AEEA]K(FITC)-NH2 (linker N-4-10 via trimesoyl″, C1-35 core with R11 as printed) [C1-54]
- Kd [2]: 5.1 µM

Molecule: [Nle]Y[dS]KW[dH]G[dK]H[Dap][βAla]A-NH2 (linker N-4-10 via trimesoyl″, No Lys(FITC) label) [C1-68]
- IC50 [9]: 2.6 µM
